Reference: patent publication US20120264231A1, “ASSAY FOR ORAI CALCIUM CHANNEL REGULATORS” (IMMUNE DISEASE INSTITUTE, INC., priority 2009, published 2012)

Molecular target: ORAI1 (Homo sapiens, UniProt Q96D31)
Assay: Cameleon D3 cpV/D4 cpV intravesicular Ca^2+ assay, sec6-4 vesicles with ORAI1
Type: biochemical
Design: the ORAI functional fragment is ORAI1 (65-301), ORAI1 (65-87), or full length ORAI1; made in house; host or cells: S. cerevisiae NY17 (sec6-4), isolated secretory vesicles, vector pBEVY-GU
Experimental: In complementary measurements, vesicular Ca^2+ was monitored directly by coexpressing ORAI1 with the Ca^2+ sensor D3 cpV or D4 cpV53 fused to the α-mating factor secretion signal to target the sensor to the vesicles. Vesicles that had incorporated ORAI1 were isolated from sec6-4 yeast incubated at the restrictive temperature and were diluted into assay buffer.
Vesicles carrying ORAI 1 were isolated from S cerevisiae strain NY1 7 according to a standard protocol (Coury, L. A., et al., Methods Enzymol 306, 169-186 (1999); Nakamoto, R. K., et al., J Biol Chem 266, 7940-7949 (1991)). Efflux of Ca^2+ elicited by STIM1^CT fragments was detected by suspending the vesicles in a buffer containing Fura-2 as principal Ca^2+ buffer, and monitoring the Fura-2 fluorescence excitation spectrum (Meyer, T., et al., Biochemistry 29, 32-37 (1990)). As a complementary approach, ORAI 1 was coexpressed with a Ca^2+ sensor cameleon D3 cpV or cameleon D4 cpV53 that was targeted to the vesicles, and changes in intravesicular [Ca^2+] were detected as changes in FRET between CFP and YFP of the sensor.
The yeast expression vector pBEVY-GU60 allows for simultaneous expression of two transgenes by means of the bidirectional GAL1-10 promoter. The FRET-based calcium sensors D3 cpV and D4 cpV53 were fused at the N-terminus with the S. cerevisiae α-mating factor secretion signal (Bitter, G. A., et al., Proc Natl Acad Sci USA 81, 5330-5334 (1984)), which directs proteins into the secretory pathway, and introduced into pBEVY-GU in the following way. Vector pPIC9 (Invitrogen) served as template for PCR amplification of the α-mating factor secretion signal (5′ primer: […] (SEQ ID NO: 2); 3′ primer: […] (SEQ ID NO: 3)), introducing an EcoRI site at the 5′ end, and a sequence complementary to that encoding the N-terminus of the calcium sensor at the 3′ end. DNA encoding the N-terminal portion of the calcium sensor D3 cpV, comprising CFP, was amplified by PCR (5′ primer: […] (SEQ ID NO: 4); 3′ primer: […] (SEQ ID NO: 5)), introducing an SphI site followed by a stop codon and a NotI site at the 3′ end of the resulting DNA fragment. PCR-mediated fusion of the fragments representing the α-mating factor secretion signal and the sensor CFP fragment yielded αCFP, which was digested with EcoRI and NotI and subcloned into pSM703. […] Human ORAI1 was Myc-tagged at the N-terminus by PCR (5′ primer: […] (SEQ ID NO: 6); 3′ primer: […] TGGCTGCCGGGC (SEQ ID NO: 7)) and subcloned as an EcoRI-BamHI fragment into pSM703. A fragment containing Myc-ORAI1 was excised from the resulting plasmid by EcoRI digestion, blunt-ended with the Klenow fragment of DNA polymerase I, and cut with AvrII. […]

[1] = STIM 1 cytoplasmic fragments 2 μM

Chain of ORAI1 (Q96D31 2-301): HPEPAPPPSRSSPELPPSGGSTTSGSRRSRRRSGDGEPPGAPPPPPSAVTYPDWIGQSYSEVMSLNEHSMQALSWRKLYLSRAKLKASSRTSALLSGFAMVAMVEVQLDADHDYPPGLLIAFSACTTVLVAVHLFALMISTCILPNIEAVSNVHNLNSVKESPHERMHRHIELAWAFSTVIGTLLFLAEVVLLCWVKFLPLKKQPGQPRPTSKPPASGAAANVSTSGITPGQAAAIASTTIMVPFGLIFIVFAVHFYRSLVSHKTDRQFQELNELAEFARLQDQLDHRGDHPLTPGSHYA

| Molecule | vesicular Ca^2+ (cameleon FRET signal) (ionomycin 20 μM) | vesicular Ca^2+ (cameleon FRET signal) [1] | fluorescence intensity ratio F528 nm/F475 nm (D3 cpV sensor, wildtype ORAI1, STIM^CT 2.6 μM, p<0.001) |
| --- | --- | --- | --- |
| C[C@H](CCC(=O)O)C[C@H](C)C[C@H](C)C(=O)/C=C(\O)[C@H](C)C[C@H](C)C/C=C/[C@@H](C)[C@@H](O)[C@@H](C)[C@@H](O)C[C@@H]1CC[C@@](C)([C@H]2CC[C@@](C)([C@@H](C)O)O2)O1 [ionomycin, reference compound] | depletion of vesicular Ca^2+ |  |  |
| STIM1 (233-498): truncated mouse STIM1 cytoplasmic fragment, residues 233-498, His-tagged recombinant protein |  | triggered substantial loss of vesicular Ca^2+ |  |
| STIM1^CT: cytoplasmic region of STIM1, mouse residues 233-685, His-tagged recombinant protein expressed in E coli |  | triggered substantial loss of vesicular Ca^2+ | changes the ratio significantly |
